# Measurements taken from US20170291930.
# B1: purified recombinant Sap2 (C. albicans secreted aspartic protease 2) (protein)
# chain: QAVPVTLHNEQVTYAADITVGSNNQKLNVIVDTGSSDLWVPDVNVDCQVTYSDQTADFCKQKGTYDPSGSSASQDLNTPFKIGYGDGSSSQGTLYKDTVGFGGVSIKNQVLADVDSTSIDQGILGVGYKTNEAGGSYDNVPVTLKKQGVIAKNAYSLYLNSPDAATGQIIFGGVDNAKYSGSLIALPVTSDRELRISLGSVEVSGKTINTDNVDVLLDSGTTITYLQQDLADQIIKAFNGKLTQDSNGNSFYEVDCNLSGDVVFNFSKNAKISVPASEFAASLQGDDGQPYDKCQLLFDVNDANILGDNFLRSAYIVYDLDDNEISLAQVKYTSASSISALT
# What was measured:
# [1] = target: T1, Hst-5 synthetic peptide K17L
# T1 chain: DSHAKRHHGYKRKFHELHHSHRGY
# [2] = target: T2, Hst-5 synthetic peptide K17R
# T2 chain: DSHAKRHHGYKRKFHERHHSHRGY
protein,measurement,setting,value
B1,cleavage at the C-terminal side of residue 17 by Sap2 (mass spectrometry),[1],"Substitutions at K17 did lead to a significant decrease in signals from fragments formed by cleavage at the C-terminal side of K17, however, unlike Sap9, Sap2 still cleaved K17L and K17R at this site"
same,cleavage at the C-terminal side of residue 17 by Sap2 (mass spectrometry),[2],"Substitutions at K17 did lead to a significant decrease in signals from fragments formed by cleavage at the C-terminal side of K17, however, unlike Sap9, Sap2 still cleaved K17L and K17R at this site"
